The chains are these.
T1: Gαi3⋅GDP (human, UniProt P08754 1-354)
T1 chain: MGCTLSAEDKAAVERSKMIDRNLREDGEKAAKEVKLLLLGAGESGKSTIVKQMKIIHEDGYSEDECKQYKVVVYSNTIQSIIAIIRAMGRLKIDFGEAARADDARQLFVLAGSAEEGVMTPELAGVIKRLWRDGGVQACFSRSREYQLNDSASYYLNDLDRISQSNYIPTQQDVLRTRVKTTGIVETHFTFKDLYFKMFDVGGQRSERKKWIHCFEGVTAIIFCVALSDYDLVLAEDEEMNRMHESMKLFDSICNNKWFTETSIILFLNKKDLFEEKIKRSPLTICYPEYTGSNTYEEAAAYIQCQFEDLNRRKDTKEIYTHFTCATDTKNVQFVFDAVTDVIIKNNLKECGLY

T2: FL-AGS3-4E (mouse, UniProt Q6IR34)
T2 sequence (Q6IR34 whole entry, looked up): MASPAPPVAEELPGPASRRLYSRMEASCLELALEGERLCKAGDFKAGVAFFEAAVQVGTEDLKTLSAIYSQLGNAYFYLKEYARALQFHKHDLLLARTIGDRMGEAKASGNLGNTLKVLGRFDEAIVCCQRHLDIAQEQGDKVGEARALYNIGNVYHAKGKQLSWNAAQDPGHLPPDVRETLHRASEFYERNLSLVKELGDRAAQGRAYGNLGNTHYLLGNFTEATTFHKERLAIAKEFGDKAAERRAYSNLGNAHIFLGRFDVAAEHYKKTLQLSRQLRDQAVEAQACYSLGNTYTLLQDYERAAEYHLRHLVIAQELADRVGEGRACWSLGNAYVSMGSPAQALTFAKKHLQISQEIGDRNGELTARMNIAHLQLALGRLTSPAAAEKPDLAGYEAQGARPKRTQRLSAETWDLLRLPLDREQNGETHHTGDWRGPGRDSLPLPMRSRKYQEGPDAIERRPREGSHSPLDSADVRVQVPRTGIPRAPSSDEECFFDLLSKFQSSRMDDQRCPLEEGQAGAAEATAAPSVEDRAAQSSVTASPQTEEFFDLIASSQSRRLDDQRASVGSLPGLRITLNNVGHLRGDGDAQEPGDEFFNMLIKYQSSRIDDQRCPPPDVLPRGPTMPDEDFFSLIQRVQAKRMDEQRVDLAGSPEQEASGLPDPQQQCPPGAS

T3: LGN-TPR (1–409) (mouse)
T3 chain: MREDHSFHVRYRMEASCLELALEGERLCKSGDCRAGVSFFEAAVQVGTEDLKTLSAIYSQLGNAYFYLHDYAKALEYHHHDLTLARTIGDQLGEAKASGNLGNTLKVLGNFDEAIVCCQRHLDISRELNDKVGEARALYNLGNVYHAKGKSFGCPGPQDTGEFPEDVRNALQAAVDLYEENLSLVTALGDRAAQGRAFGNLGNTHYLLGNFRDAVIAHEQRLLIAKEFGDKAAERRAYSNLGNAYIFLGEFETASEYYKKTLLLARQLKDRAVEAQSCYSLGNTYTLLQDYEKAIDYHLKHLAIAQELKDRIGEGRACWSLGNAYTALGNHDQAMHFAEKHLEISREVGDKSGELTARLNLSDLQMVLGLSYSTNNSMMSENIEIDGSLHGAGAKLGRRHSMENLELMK

T4: AGS3 (Homo sapiens, UniProt Q86YR5)
T4 chain: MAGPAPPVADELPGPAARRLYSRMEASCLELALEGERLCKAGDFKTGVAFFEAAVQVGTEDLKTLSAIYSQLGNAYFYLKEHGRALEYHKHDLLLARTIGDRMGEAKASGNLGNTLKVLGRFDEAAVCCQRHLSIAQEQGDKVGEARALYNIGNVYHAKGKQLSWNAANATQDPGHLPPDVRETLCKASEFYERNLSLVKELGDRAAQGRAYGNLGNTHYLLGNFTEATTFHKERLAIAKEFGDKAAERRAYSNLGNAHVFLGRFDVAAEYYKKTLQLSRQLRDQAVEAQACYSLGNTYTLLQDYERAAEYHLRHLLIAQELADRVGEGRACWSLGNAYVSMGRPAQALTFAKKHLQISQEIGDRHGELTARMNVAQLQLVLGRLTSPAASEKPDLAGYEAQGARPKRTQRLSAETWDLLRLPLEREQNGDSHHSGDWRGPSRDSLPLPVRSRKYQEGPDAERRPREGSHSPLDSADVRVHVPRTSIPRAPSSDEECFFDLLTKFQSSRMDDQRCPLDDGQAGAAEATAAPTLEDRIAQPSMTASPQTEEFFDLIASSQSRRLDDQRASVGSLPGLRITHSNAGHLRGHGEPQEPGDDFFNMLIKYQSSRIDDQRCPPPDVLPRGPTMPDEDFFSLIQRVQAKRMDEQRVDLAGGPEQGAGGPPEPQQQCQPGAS

T5: LGN (Homo sapiens, UniProt P81274)
T5 chain: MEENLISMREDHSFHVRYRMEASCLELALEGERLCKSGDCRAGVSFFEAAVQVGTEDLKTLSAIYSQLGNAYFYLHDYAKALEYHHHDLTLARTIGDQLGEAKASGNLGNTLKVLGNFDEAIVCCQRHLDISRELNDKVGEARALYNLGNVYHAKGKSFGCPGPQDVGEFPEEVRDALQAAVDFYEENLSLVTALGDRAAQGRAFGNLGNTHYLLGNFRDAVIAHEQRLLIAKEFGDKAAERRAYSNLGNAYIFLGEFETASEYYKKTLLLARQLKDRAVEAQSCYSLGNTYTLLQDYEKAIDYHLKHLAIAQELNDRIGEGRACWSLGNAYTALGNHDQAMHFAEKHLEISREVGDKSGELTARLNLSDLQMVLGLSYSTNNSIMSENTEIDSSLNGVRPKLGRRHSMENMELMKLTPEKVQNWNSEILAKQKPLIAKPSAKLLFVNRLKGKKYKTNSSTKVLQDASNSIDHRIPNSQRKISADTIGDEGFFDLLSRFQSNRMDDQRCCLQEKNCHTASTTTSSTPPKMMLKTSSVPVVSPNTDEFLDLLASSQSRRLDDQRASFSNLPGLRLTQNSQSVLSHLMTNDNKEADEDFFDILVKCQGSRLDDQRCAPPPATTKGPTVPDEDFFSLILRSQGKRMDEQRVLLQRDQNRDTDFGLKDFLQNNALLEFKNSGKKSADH

T6: FL-LGN-4E (mouse, UniProt Q8VDU0)
T6 sequence (Q8VDU0 whole entry, looked up): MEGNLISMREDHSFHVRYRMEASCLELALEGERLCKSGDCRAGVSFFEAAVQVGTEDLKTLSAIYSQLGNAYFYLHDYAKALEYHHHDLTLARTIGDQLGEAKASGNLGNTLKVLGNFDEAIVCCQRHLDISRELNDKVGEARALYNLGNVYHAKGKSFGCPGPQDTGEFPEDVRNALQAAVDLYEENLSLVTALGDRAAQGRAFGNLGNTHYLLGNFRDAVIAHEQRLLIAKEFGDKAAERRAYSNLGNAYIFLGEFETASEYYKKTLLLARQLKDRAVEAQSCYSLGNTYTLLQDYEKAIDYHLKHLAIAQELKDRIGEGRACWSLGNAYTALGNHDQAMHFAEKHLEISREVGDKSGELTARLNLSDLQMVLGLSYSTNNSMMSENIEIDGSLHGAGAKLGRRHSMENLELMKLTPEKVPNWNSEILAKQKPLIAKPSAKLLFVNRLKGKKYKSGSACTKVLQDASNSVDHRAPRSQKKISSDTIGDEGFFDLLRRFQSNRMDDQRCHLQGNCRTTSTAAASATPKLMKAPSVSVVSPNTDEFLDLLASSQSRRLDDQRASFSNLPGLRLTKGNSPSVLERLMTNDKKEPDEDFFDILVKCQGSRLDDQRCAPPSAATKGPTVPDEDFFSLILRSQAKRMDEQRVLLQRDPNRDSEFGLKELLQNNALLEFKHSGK

T7: AGS3-L (−23–405) (mouse)
T7 chain: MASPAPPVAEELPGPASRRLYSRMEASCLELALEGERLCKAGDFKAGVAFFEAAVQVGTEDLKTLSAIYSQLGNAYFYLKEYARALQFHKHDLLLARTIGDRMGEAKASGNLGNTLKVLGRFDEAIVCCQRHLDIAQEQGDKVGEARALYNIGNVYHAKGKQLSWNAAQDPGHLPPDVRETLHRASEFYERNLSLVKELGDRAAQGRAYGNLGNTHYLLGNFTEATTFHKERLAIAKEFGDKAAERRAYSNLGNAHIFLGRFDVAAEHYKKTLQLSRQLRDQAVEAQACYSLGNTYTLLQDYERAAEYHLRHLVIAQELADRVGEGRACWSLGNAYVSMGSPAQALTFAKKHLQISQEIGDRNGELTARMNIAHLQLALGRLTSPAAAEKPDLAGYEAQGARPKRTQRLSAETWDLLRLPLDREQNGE

B1: AGS3-GL1234 (470–631) (domain or fragment)
chain: EECFFDLLSKFQSSRMDDQRCPLEEGQAGAAEATAAPSVEDRAAQSSVTASPQTEEFFDLIASSQSRRLDDQRASVGSLPGLRITLNNVGHLRGDGDAQEPGDEFFNMLIKYQSSRIDDQRCPPPDVLPRGPTMPDEDFFSLIQRVQAKRMDEQRVDLAGSP
B2: LGN-GL1234 (483–650) (domain or fragment)
chain: DEGFFDLLRRFQSNRMDDQRCHLQGNCRTTSTAAASATPKLMKAPSVSVVSPNTDEFLDLLASSQSRRLDDQRASFSNLPGLRLTKGNSPSVLERLMTNDKKEPDEDFFDILVKCQGSRLDDQRCAPPSAATKGPTVPDEDFFSLILRSQAKRMDEQRVLLQRDPNRD

No end group written: not given here.

One test concerns the target T1, Gαi3⋅GDP. Nature of the test: ITC.
For the molecule TDEFLDLLASSQSRRLDDQRASF (domain or fragment) [LGN GL2 motif], the Kd came to 41.5 nM.
Still for that read-out and setting: as for DEDFFSLIQRVQAKRMDEQRVDL (domain or fragment) [AGS3 GL4 motif], the figure is 320 nM; as for EECFFDLLSKFQSSRMDDQRCPL (domain or fragment) [AGS3 GL1 motif], 300 nM; as for TEEFFDLIASSQSRRLDDQRASV (domain or fragment) [AGS3 GL2 motif], 36.5 nM.
On the same count and under the same terms, as for GDEFFNMLIKYQSSRIDDQRCPP (domain or fragment) [AGS3 GL3 motif], the figure is 260 nM.
Same read-out and setting: as for DEGFFDLLRRFQSNRMDDQRCHL (domain or fragment) [LGN GL1 motif], the figure is 330 nM.

The target of a further test is T2, FL-AGS3-4E. Nature of the test: ITC.
The molecule NSFYMGTCQDEPEQLDDWNRIAELQQR (domain or fragment) [NuMA (1886–1912)] came in with a Kd of 280 nM.

The target in a further test is T3, LGN-TPR (1–409). In words: ITC.
For the molecule NSFYMGTCQDEPEQLDDWNRIAELQQR (domain or fragment) [NuMA (1886–1912)], the dissociation constant (Kd) was found to be 630 nM.

A further test deals with T1, Gαi3⋅GDP. Nature of the test: ITC; GDP.
DEDFFSLILRSQAKRMDEQRVLL (domain or fragment) [LGN GL4 motif] had a Kd of 200 nM.
In the case of TDEFLDLLASSQSRRLDDQRASF (domain or fragment) [LGN GL2 motif], the Kd was 40 nM.
On to DEDFFSLIQRVQAKRMDEQRVDL (domain or fragment) [AGS3 GL4 motif], for which the Kd is 330 nM.
On the same count and under the same terms, as for EECFFDLLSKFQSSRMDDQRCPL (domain or fragment) [AGS3 GL1 motif], the figure is 300 nM; as for B1, 280 nM; as for B2, 260 nM.
For the molecule TEEFFDLIASSQSRRLDDQRASV (domain or fragment) [AGS3 GL2 motif], the Kd stood at 40 nM.
Molecule GDEFFNMLIKYQSSRIDDQRCPP (domain or fragment) [AGS3 GL3 motif] displayed a Kd of 260 nM.
DEGFFDLLRRFQSNRMDDQRCHL (domain or fragment) [LGN GL1 motif] gave a Kd of 330 nM.
The same measure, in the same setting: as for DEDFFDILVKCQGSRLDDQRCAP (domain or fragment) [LGN GL3 motif], the figure is 40 nM.

A further test concerns the target T4, AGS3.
Experiment: not given
Take WGLWGVQESRRLCCAGHDRCKQALLQIGINMMALPGGRHLDSVTLPGQR: the affinity, expressed as Kd, was 2270 nM.
Same read-out and setting: with WGLWGVQESRRLCCAGHDRCKQALLQIGINMMALPGGRHLDSVTLPGQR (not fully specified; cysteine pairing not given here) the figure was 2290 nM.

The target of the next test is T5, LGN.
Experiment: not given
WGLWGVQESRRLCCAGHDRCKQALLQIGINMMALPGGRHLDSVTLPGQR gave a Kd of 3920 nM.
Same read-out and setting: as for WGLWGVQESRRLCCAGHDRCKQALLQIGINMMALPGGRHLDSVTLPGQR (not fully specified; cysteine pairing not given here), the figure is 2620 nM.

In another test the target is T6, FL-LGN-4E. In words: ITC.
NSFYMGTCQDEPEQLDDWNRIAELQQR (domain or fragment) [NuMA (1886–1912)] displayed a Kd of 200 nM.

The target of another test is T7, AGS3-L (−23–405). Nature of the test: ITC.
Turning to NSFYMGTCQDEPEQLDDWNRIAELQQR (domain or fragment) [NuMA (1886–1912)], the Kd came out at 240 nM.

(Values after paper PMC12151148 (2024).)
